This is an account of results in US20240199762A1 (PHILOGEN S P A, published 2024).

For assay [1], the target named is T1, porcine FAP (pFAP) extracellular domain (ECD) (pig, UniProt A5D7B7 39-760 (bovine entry)).
T1 construct: also called pFAP-ECD
T1 chain: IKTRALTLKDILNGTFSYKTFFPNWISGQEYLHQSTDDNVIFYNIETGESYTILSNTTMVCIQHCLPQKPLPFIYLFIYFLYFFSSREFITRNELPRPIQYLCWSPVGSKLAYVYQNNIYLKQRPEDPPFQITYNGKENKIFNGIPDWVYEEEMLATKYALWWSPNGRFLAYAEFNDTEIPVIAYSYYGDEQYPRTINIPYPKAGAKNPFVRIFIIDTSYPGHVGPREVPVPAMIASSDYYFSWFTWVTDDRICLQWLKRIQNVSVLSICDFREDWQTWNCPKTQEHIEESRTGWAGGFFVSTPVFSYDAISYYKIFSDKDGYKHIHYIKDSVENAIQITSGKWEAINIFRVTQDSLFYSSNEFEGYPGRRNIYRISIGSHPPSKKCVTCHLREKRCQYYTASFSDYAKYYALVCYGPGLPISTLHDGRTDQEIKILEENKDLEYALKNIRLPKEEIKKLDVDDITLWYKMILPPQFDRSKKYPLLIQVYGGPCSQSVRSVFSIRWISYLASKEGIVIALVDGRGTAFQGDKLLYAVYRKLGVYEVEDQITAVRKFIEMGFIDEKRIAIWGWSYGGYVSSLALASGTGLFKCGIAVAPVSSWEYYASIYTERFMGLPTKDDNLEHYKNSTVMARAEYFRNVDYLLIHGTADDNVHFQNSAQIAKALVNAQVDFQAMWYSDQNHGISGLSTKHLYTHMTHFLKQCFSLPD
As to the kind of experiment: ELISA, 120 nM pFAP-ECD coated on Maxisorp plates. Here is the method: (§1) Cross-reactivity of the anti-hFAP antibodies with oFAP-ECD and pFAP-ECD was tested using ELISA. 120 nM of oFAP-ECD or pFAP-ECD was coated on Maxisorp plates overnight at 4° C. […] Specifically, the C5 antibody was employed in IgG2a format, while all other antibodies, including the 7NP2 antibody, were in IgG1 format. The differences between the IgG2a and IgG1 formats are not expected to affect binding to FAP. After 3 washes with PBS, binding of the antibodies to oFAP-ECD and pFAP-ECD was detected using an anti-human or anti-murine antibody HRP conjugate.
A general note: In an ELISA, binding on a coated surface is turned into a signal by an enzyme label.

The target of assay [2] is T2, ovine FAP (oFAP) extracellular domain (ECD) (sheep).
T2 construct: also called oFAP-ECD
T2 chain: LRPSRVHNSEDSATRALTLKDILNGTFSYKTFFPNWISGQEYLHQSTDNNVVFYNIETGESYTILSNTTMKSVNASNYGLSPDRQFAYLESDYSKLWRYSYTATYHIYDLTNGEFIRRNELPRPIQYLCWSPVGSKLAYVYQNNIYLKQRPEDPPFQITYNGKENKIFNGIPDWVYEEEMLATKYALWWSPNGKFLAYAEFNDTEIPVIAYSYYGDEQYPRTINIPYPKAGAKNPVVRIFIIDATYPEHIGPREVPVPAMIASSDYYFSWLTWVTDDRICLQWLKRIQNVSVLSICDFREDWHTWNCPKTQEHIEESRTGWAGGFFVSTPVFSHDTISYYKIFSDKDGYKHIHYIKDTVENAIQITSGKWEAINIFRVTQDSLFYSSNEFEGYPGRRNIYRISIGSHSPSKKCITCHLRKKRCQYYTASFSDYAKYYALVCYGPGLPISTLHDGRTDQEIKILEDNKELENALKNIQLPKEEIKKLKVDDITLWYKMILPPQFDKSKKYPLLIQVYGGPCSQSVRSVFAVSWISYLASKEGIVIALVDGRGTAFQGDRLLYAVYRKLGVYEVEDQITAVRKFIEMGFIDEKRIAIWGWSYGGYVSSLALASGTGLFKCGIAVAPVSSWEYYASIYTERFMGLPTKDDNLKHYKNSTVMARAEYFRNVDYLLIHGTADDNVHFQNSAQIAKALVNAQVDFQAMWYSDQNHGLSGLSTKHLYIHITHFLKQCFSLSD
As to the kind of experiment: ELISA, 120 nM oFAP-ECD coated on Maxisorp plates. As to the method:
as §1

The target of assay [3] is T3, canine FAP (caFAP) extracellular domain (ECD) (domestic dog (Canis familiaris)).
T3 construct: also called caFAP-ECD
T3 chain: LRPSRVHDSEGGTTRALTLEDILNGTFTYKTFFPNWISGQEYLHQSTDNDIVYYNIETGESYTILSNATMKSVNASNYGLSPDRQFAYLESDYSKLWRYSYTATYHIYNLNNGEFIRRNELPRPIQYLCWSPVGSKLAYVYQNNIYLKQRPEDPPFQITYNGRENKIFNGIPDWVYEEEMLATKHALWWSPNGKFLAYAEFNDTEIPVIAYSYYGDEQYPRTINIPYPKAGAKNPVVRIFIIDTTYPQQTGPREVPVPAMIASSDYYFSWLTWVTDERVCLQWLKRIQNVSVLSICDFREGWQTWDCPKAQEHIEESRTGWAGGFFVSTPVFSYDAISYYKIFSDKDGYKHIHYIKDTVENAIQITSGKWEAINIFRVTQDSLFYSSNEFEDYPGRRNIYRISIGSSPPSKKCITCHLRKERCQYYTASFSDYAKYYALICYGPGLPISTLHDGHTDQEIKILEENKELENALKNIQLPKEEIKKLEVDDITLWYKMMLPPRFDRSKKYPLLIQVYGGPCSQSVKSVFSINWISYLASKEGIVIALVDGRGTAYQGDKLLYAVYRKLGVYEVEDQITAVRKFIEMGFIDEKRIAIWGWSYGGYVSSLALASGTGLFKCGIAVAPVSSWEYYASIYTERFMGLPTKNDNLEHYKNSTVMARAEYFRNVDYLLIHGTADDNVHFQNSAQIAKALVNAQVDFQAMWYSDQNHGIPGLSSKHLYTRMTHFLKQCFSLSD
As to the kind of experiment: ELISA, 120 nM caFAP-ECD coated, antibody at 5 ug/mL. As to the method:
Cross-reactivity of the anti-hFAP antibodies with caFAP-ECD was tested using ELISA. 120 nM of caFAP-ECD was coated on Maxisorp plates overnight at 4° C. […] Specifically, the C5 antibody was employed in IgG2a format, while all other antibodies, including the 7NP2 antibody, were in IgG1 format. The differences between the IgG2a and IgG1 formats are not expected to affect binding to FAP. After 3 washes with PBS, binding of the antibodies to caFAP-ECD was detected using an anti-human or anti-murine antibody HRP conjugate.

B1: anti-hen egg lysozyme antibody KSF in IgG1 format (antibody, V domains shown)
VH: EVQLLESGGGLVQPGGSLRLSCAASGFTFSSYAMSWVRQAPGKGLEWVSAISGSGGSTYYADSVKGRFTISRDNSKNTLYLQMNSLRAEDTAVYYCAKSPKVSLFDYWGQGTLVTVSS
VL: SSELTQDPAVSVALGQTVRITCQGDSLRSYYASWYQQKPGQAPVLVIYGKNNRPSGIPDRFSGSSSGNTASLTITGAQAEDEADYYCQSSPLNRLAVVFGGGTKLTVLG
notes: Negative control; It was conjugated to FITC in the immunofluorescence and ex vivo experiments; also called KSF IgG1; KSF(IgG1)
Take B1: the binding result in assay [1] and in assay [2] was “no binding (tested: 5 µg/mL)” in each case.

B2: anti-FAP antibody 7NP2 in IgG1 format (antibody, V domains shown)
VH: EVQLLESGGGLVQPGGSLRLSCAASGFTFSSYAMSWVRQAPGKGLEWVSAIGSVGGPTYYADSVKGRFTISRDNSKNTLYLQMNSLRAEDTAVYYCAKRLAWFDYWGQGTLVTVSS
VL: EIVLTQSPGTLSLSPGERATLSCRASQSVSSSYLAWYQQKPGQAPRLLIYGASSRATGIPDRFSGSGSGTDFTLTISRLEPEDFAVYYCQQSGKGPLTFGQGTKVEIKR
notes: also called 7NP2 IgG1; 7NP2(IgG1)
B2: the binding result in assay [3] was “binds”.
